According to patent US20200283502A1 (PEPTICOM LTD., priority 2017, published 2020):
Where a SMILES comes first, the peptide text is derived from it. Where no end group is shown, it is not given here. [ ]: non-standard residue; d: D form. His(π-Me) = Cn1cncc1C[C@H](N)C(=O)O; NMeT = CN[C@H](C(=O)O)[C@@H](C)O; Cha = N[C@@H](CC1CCCCC1)C(=O)O

Target: T1, human GABA receptor (subunits α1β3γ2) (Homo sapiens, UniProt P14867+P28472)
T1 construct: expressed in transfected cells; host or cells: HEK293
Assay: manual whole-cell patch-clamp of GABA receptor-mediated Cl− current in HEK293 cells
Assay type: cell-based
Settings: for Activity: human α1β3γ2 GABAA receptor, electrophysiological recordings; for potentiation of human GABA receptor-mediated Cl− current: receptor expressed in HEK293 cells, manual whole-cell patch-clamp
Description: All the compounds of the present invention were tested and validated using electrophysiological recordings on the human GABAA receptor comprising of the following subunits α1β3γ2.
The peptides of the present invention are capable of activating, inhibiting or modulating the GABAA receptor. These peptides were derived in-silico and tested in-vitro in cell cultures. […] The human GABA receptor (subunits α1β3γ2) used in these experiments was expressed in HEK293 cells in manual whole-cell patch-clamp settings.

T1 sequence (P14867 28-456): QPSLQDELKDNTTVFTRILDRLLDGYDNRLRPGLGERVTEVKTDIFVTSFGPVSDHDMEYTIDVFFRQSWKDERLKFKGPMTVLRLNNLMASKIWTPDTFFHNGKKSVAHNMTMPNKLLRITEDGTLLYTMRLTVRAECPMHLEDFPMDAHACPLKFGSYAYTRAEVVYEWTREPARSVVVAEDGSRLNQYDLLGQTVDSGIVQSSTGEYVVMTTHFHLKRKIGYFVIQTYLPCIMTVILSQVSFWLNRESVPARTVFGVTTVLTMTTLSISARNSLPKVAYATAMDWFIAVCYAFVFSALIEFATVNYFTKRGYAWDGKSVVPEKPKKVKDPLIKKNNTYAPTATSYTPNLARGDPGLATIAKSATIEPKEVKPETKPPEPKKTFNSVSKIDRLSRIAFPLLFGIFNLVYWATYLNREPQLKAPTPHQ
T1 sequence (P28472 26-473): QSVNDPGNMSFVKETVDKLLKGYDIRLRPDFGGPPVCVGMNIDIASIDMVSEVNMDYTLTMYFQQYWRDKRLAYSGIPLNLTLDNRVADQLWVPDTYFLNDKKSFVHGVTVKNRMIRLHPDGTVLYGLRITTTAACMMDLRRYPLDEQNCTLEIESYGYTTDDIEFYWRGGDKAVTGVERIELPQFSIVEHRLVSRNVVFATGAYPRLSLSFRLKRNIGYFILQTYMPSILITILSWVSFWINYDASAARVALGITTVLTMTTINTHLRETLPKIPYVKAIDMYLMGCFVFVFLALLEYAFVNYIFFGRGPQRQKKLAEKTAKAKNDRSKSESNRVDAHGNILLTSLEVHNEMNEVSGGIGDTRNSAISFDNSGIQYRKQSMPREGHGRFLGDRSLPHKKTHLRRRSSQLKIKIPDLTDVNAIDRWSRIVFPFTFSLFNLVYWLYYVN
T1 sequence (P18507 40-475 partner): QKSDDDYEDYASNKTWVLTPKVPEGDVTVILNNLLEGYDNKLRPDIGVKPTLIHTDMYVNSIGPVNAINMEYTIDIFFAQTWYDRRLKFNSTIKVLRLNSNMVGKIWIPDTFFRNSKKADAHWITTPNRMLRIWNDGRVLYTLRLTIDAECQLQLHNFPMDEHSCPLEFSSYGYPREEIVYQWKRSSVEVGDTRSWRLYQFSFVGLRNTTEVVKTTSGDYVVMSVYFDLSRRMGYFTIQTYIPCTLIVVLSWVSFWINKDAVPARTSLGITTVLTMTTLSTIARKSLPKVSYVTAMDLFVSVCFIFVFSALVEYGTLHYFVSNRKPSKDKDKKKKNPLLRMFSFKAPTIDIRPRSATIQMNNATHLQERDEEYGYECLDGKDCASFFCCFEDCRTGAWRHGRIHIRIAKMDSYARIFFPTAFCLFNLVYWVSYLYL

| Molecule | Activity | potentiation of human GABA receptor-mediated Cl− current |
| --- | --- | --- |
| C[C@@H](O)[C@H](NC(=O)[C@@H](N)CC1CCCCC1)C(=O)N[C@@H](Cc1c[nH]c2ccccc12)C(=O)N[C@@H](CCC(N)=O)C(=O)N[C@H](C=O)CCC(=O)O [SEQ ID NO:2, (L-cyclohexyl-alanine)- TWQE] (H-[Cha]TWQE-aldehyde) | Positive allosteric modulator | selective potentiation |
| C[C@@H](O)[C@@H](C(=O)N[C@@H](Cc1c[nH]c2ccccc12)C(=O)N[C@@H](CCC(N)=O)C(=O)N[C@H](C=O)CCC(=O)O)N(C)C(=O)[C@@H](N)Cc1cncn1C [SEQ ID NO:3, (3-methyl-L-histidine)-(N-methyl-threonine)-WQE] (H-[His(π-Me)][NMeT]WQE-aldehyde) | Positive allosteric modulator | selective potentiation |
| C[C@@H](O)[C@@H](C(=O)N[C@H](Cc1c[nH]c2ccccc12)C(=O)N[C@@H](CCC(N)=O)C(=O)N[C@H](C=O)CCC(=O)O)N(C)C(=O)[C@@H](N)Cc1cncn1C [SEQ ID NO:4, (3-methyl-L-histidine)-(N-methyl-threonine)-(N-methyl-tryptophan)-QE] (H-[His(π-Me)][NMeT][dW]QE-aldehyde) | Positive allosteric modulator | selective potentiation |
| Arg—Phe—His—Ser (RFHS; printed: Arg—Phe—His—Ser) [SEQ ID NO:10] | Positive allosteric modulator | selective potentiation |
| Arg—Thr—Trp—Gly—Glu (RTWGE; printed: Arg—Thr—Trp—Gly—Glu) [SEQ ID NO:13] | – | selective potentiation |
| His—Ile—Ser—NH2 [SEQ ID NO:9] | Positive allosteric modulator | selective potentiation |
| His—Pro—Pro—Ala—Thr (HPPAT; printed: His—Pro—Pro—Ala—Thr) [SEQ ID NO:8] | Positive allosteric modulator | selective potentiation |
| His—Pro—Trp—Gln (HPWQ; printed: His—Pro—Trp—Gln) [SEQ ID NO:15] | Positive allosteric modulator | selective potentiation |
| His—Thr—Thr—Gly—Asp (HTTGD; printed: His—Thr—Thr—Gly—Asp) [SEQ ID NO:12] | Positive allosteric modulator | selective potentiation |
| His—Thr—Trp—Gln—Glu (HTWQE; printed: His—Thr—Trp—Gln—Glu) [SEQ ID NO:1] | Positive allosteric modulator | selective potentiation |
| His—Thr—Trp—Lys—Lys (HTWKK; printed: His—Thr—Trp—Lys—Lys) [SEQ ID NO:6] | Positive allosteric modulator | selective potentiation |
| His—Thr—Trp—Pro (HTWP; printed: His—Thr—Trp—Pro) [SEQ ID NO:14] | Positive allosteric modulator | selective potentiation |
| His—Thr—Trp—Tyr—Glu (HTWYE; printed: His—Thr—Trp—Tyr—Glu) [SEQ ID NO:7] | Positive allosteric modulator | selective potentiation |
| Thr—Glu—Ser—Lys—Gly—NH2 (TESKG-NH2) [SEQ ID NO:11] | Positive allosteric modulator | selective potentiation |
